Like-named read-outs stand apart in the source and are kept apart here. Starred links: 1 amine or outer side, 2 acyl side, 3 side chain; linkers in the order of their positions; H or OH if unused. Positions of bridges follow the written chain, without caps; N, C: chain ends. Non-standard residues stand in square brackets, D forms with d. Groups on a side chain read outwards from the residue. Primed or numbered codes have the meaning given here. No end group written: not given here. *: point of attachment. PEG 40 kDa″ = 40 kDa polyethylene glycol; γGlu = O=C(O)[C@H](CCC(=O)[*:2])N[*:1]; Stearoyl = CCCCCCCCCCCCCCCCCC(=O)*; Palmitoyl = CCCCCCCCCCCCCCCC(=O)*; Myristoyl = CCCCCCCCCCCCCC(=O)*; Aib = CC(C)(N)C(=O)O

Holding throughout (assay): cell-based or functional assay
For test [1], the target named is T1, GLP-1 receptor (UniProt P43220 24-463, limits assumed).
In test [2] the target is T2, glucagon receptor (UniProt P47871 26-477, limits assumed).
The target of test [3] is T1, GLP-1 receptor. The source holds these as a separate data set.
The target of test [4] is T2, glucagon receptor. The source holds these as a separate data set.
Test [5] deals with T1, GLP-1 receptor. This is another data set of the same source.
Test [6] concerns the target T1, GLP-1 receptor. The source holds these as a separate data set.
The target in test [7] is T2, glucagon receptor. The source holds these as a separate data set.
Test [8] deals with T1, GLP-1 receptor. The source holds these as a separate data set.
Test [9] deals with T2, glucagon receptor. The source holds these as a separate data set.
Test [10] deals with T1, GLP-1 receptor. This is another data set of the same source.
The target in test [11] is T2, glucagon receptor. The source holds these as a separate data set.
Test [12] deals with T1, GLP-1 receptor. This is another data set of the same source.

T2 sequence (P47871 26-477 limits assumed): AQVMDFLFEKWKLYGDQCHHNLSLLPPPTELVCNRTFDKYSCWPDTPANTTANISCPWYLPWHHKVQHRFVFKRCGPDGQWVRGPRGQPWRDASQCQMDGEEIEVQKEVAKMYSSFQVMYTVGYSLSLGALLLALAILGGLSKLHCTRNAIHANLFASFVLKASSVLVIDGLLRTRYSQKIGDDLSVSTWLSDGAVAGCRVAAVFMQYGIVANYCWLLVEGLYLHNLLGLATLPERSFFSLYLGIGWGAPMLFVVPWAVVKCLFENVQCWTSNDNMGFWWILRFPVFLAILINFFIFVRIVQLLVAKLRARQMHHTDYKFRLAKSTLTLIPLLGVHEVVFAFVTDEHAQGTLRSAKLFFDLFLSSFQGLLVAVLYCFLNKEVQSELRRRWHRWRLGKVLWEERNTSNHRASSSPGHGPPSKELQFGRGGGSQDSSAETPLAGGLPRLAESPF

For HSQGTFTSDYSKYLDEQAAKEFIAWLVKG-NH2 [E16 GLP(17-29)-NH2], the “cAMP induction EC50” value was 0.01 nM with GLP-1 receptor [1] and 0.46 nM with glucagon receptor [2].

B1: Peptide 80** (SEQ ID NO: 619) (peptide)
peptide: H[Aib]QGTFTSDK([γGlu-γGlu-Palmitoyl])SKYLD[Aib]RRAQDFVCWLMNT-NH2
modifications: N-terminus assumed
SMILES: CCCCCCCCCCCCCCCC(=O)N[C@@H](CCC(=O)N[C@@H](CCC(=O)NCCCC[C@H](NC(=O)[C@H](CC(=O)O)NC(=O)[C@H](CO)NC(=O)[C@@H](NC(=O)[C@H](Cc1ccccc1)NC(=O)[C@@H](NC(=O)CNC(=O)[C@H](CCC(N)=O)NC(=O)C(C)(C)NC(=O)[C@@H](N)Cc1c[nH]cn1)[C@@H](C)O)[C@@H](C)O)C(=O)N[C@@H](CO)C(=O)N[C@@H](CCCCN)C(=O)N[C@@H](Cc1ccc(O)cc1)C(=O)N[C@@H](CC(C)C)C(=O)N[C@@H](CC(=O)O)C(=O)NC(C)(C)C(=O)N[C@@H](CCCNC(=N)N)C(=O)N[C@@H](CCCNC(=N)N)C(=O)N[C@@H](C)C(=O)N[C@@H](CCC(N)=O)C(=O)N[C@@H](CC(=O)O)C(=O)N[C@@H](Cc1ccccc1)C(=O)N[C@H](C(=O)N[C@@H](CS)C(=O)N[C@@H](Cc1c[nH]c2ccccc12)C(=O)N[C@@H](CC(C)C)C(=O)N[C@@H](CCSC)C(=O)N[C@@H](CC(N)=O)C(=O)N[C@H](C(N)=O)[C@@H](C)O)C(C)C)C(=O)O)C(=O)O
Regarding B1, the values for the EC50 with GLP-1 receptor [3] and with glucagon receptor [4] were 0.008 nM and 0.006 nM, respectively.

B2: Peptide 77** (SEQ ID NO: 616) (peptide)
peptide: H[Aib]QGTFTSDK(Myristoyl)SKYLD[Aib]RRAQDFVCWLMNT-NH2
modifications: N-terminus assumed
SMILES: CCCCCCCCCCCCCC(=O)NCCCC[C@H](NC(=O)[C@H](CC(=O)O)NC(=O)[C@H](CO)NC(=O)[C@@H](NC(=O)[C@H](Cc1ccccc1)NC(=O)[C@@H](NC(=O)CNC(=O)[C@H](CCC(N)=O)NC(=O)C(C)(C)NC(=O)[C@@H](N)Cc1c[nH]cn1)[C@@H](C)O)[C@@H](C)O)C(=O)N[C@@H](CO)C(=O)N[C@@H](CCCCN)C(=O)N[C@@H](Cc1ccc(O)cc1)C(=O)N[C@@H](CC(C)C)C(=O)N[C@@H](CC(=O)O)C(=O)NC(C)(C)C(=O)N[C@@H](CCCNC(=N)N)C(=O)N[C@@H](CCCNC(=N)N)C(=O)N[C@@H](C)C(=O)N[C@@H](CCC(N)=O)C(=O)N[C@@H](CC(=O)O)C(=O)N[C@@H](Cc1ccccc1)C(=O)N[C@H](C(=O)N[C@@H](CS)C(=O)N[C@@H](Cc1c[nH]c2ccccc12)C(=O)N[C@@H](CC(C)C)C(=O)N[C@@H](CCSC)C(=O)N[C@@H](CC(N)=O)C(=O)N[C@H](C(N)=O)[C@@H](C)O)C(C)C
For B2, the EC50 with GLP-1 receptor [3] came out at 0.063 nM; with glucagon receptor [4], 0.144 nM.

B3: Peptide 78** (SEQ ID NO: 617) (peptide)
peptide: H[Aib]QGTFTSDK([γGlu-γGlu-Myristoyl])SKYLD[Aib]RRAQDFVCWLMNT-NH2
modifications: N-terminus assumed
SMILES: CCCCCCCCCCCCCC(=O)N[C@@H](CCC(=O)N[C@@H](CCC(=O)NCCCC[C@H](NC(=O)[C@H](CC(=O)O)NC(=O)[C@H](CO)NC(=O)[C@@H](NC(=O)[C@H](Cc1ccccc1)NC(=O)[C@@H](NC(=O)CNC(=O)[C@H](CCC(N)=O)NC(=O)C(C)(C)NC(=O)[C@@H](N)Cc1c[nH]cn1)[C@@H](C)O)[C@@H](C)O)C(=O)N[C@@H](CO)C(=O)N[C@@H](CCCCN)C(=O)N[C@@H](Cc1ccc(O)cc1)C(=O)N[C@@H](CC(C)C)C(=O)N[C@@H](CC(=O)O)C(=O)NC(C)(C)C(=O)N[C@@H](CCCNC(=N)N)C(=O)N[C@@H](CCCNC(=N)N)C(=O)N[C@@H](C)C(=O)N[C@@H](CCC(N)=O)C(=O)N[C@@H](CC(=O)O)C(=O)N[C@@H](Cc1ccccc1)C(=O)N[C@H](C(=O)N[C@@H](CS)C(=O)N[C@@H](Cc1c[nH]c2ccccc12)C(=O)N[C@@H](CC(C)C)C(=O)N[C@@H](CCSC)C(=O)N[C@@H](CC(N)=O)C(=O)N[C@H](C(N)=O)[C@@H](C)O)C(C)C)C(=O)O)C(=O)O
As to B3, the EC50 in the test with GLP-1 receptor [3] came to 0.008 nM; with glucagon receptor [4], 0.009 nM.

HSQGTFTSDK([Trp-Palmitoyl])SKYLDERRAKDFVQWLMNT-NH2 [E16 K20-glucagon-NH2 with K10-W-C16] returned an EC50 in the test with GLP-1 receptor [5] of 0.05 nM.

With HSQGTFTSDK([Trp-Stearoyl])SKYLDERRAKDFVC(PEG 40 kDa)WLMNT-NH2 [E16 K20-glucagon-NH2 with K10-W-C18 and C24-40K PEG (SEQ ID NO: 548)], the EC50 in the test with GLP-1 receptor [6] was determined as 1.64 nM; with glucagon receptor [7] it was 1.29 nM; in the test with GLP-1 receptor [8], 1.64 nM; in the test with glucagon receptor [9] it was 1.3 nM.

On to HSQGTFTSDYSKYLDEQAAKEFIC(PEG 40 kDa)WLMNT-NH2 [Chimera 2 Cys24 (40K)], for which the EC50 was determined as 0.04 nM with GLP-1 receptor [6] and 2.83 nM with glucagon receptor [7].

For HSQGTFTSDK([Glu-Palmitoyl])SKYLDERRAKDFVQWLMNT-NH2 [Peptide D (Example 22)], the EC50 in the test with GLP-1 receptor [10] was found to be 0.056 nM; with glucagon receptor [11], 0.062 nM.

Turning to HSQGTFTSDYSKYLDEQAAKEFIAWLMNT-NH2 [E16 GLP(17-26)Glu(27-29)-NH2], the “cAMP induction EC50” value came out at 0.014 nM with GLP-1 receptor [1] and 0.076 nM with glucagon receptor [2].

With HSQGTFTSDYSKYLDEQAAKEFIEWLVKG-NH2 [E16 GLP(17-29)-NH2 E24, K28], the “cAMP induction EC50” value in the test with GLP-1 receptor [1] is 0.007 nM; with glucagon receptor [2], 0.23 nM.

B4: E16 GLP(17-29)-NH2 E24, K28 Lactam (peptide)
peptide: HSQGTFTSDYSKYLDEQAAKEFIEWLVKG-NH2
modifications: lactam 24-28; N-terminus assumed
SMILES: CC[C@H](C)[C@H](NC(=O)[C@H](Cc1ccccc1)NC(=O)[C@H](CCC(=O)O)NC(=O)[C@H](CCCCN)NC(=O)[C@H](C)NC(=O)[C@H](C)NC(=O)[C@H](CCC(N)=O)NC(=O)[C@H](CCC(=O)O)NC(=O)[C@H](CC(=O)O)NC(=O)[C@H](CC(C)C)NC(=O)[C@H](Cc1ccc(O)cc1)NC(=O)[C@H](CCCCN)NC(=O)[C@H](CO)NC(=O)[C@H](Cc1ccc(O)cc1)NC(=O)[C@H](CC(=O)O)NC(=O)[C@H](CO)NC(=O)[C@@H](NC(=O)[C@H](Cc1ccccc1)NC(=O)[C@@H](NC(=O)CNC(=O)[C@H](CCC(N)=O)NC(=O)[C@H](CO)NC(=O)[C@@H](N)Cc1c[nH]cn1)[C@@H](C)O)[C@@H](C)O)C(=O)N[C@H]1CCC(=O)NCCCC[C@@H](C(=O)NCC(N)=O)NC(=O)[C@H](C(C)C)NC(=O)[C@H](CC(C)C)NC(=O)[C@H](Cc2c[nH]c3ccccc23)NC1=O
B4: the “cAMP induction EC50” value is 0.007 nM with GLP-1 receptor [1] and 0.16 nM with glucagon receptor [2].

Regarding HSQGTFTSDK(Stearoyl)SKYLDERRAKDFVC(PEG 40 kDa)WLMNT-NH2 [E16 K20-glucagon-NH2 with K10-C18 and C24-40K PEG (SEQ ID NO: 547)], the EC50 in the test with GLP-1 receptor [6] was determined as 0.15 nM; with glucagon receptor [7], 0.84 nM; in the test with GLP-1 receptor [8], 0.15 nM; with glucagon receptor [9] it was 0.84 nM.

B5: Peptide 81** (SEQ ID NO: 618) (peptide)
peptide: H[Aib]QGTFTSDK([Ala-Ala-Myristoyl])SKYLD[Aib]RRAQDFVCWLMNT-NH2
modifications: N-terminus assumed
SMILES: CCCCCCCCCCCCCC(=O)N[C@@H](C)C(=O)N[C@@H](C)C(=O)NCCCC[C@H](NC(=O)[C@H](CC(=O)O)NC(=O)[C@H](CO)NC(=O)[C@@H](NC(=O)[C@H](Cc1ccccc1)NC(=O)[C@@H](NC(=O)CNC(=O)[C@H](CCC(N)=O)NC(=O)C(C)(C)NC(=O)[C@@H](N)Cc1c[nH]cn1)[C@@H](C)O)[C@@H](C)O)C(=O)N[C@@H](CO)C(=O)N[C@@H](CCCCN)C(=O)N[C@@H](Cc1ccc(O)cc1)C(=O)N[C@@H](CC(C)C)C(=O)N[C@@H](CC(=O)O)C(=O)NC(C)(C)C(=O)N[C@@H](CCCNC(=N)N)C(=O)N[C@@H](CCCNC(=N)N)C(=O)N[C@@H](C)C(=O)N[C@@H](CCC(N)=O)C(=O)N[C@@H](CC(=O)O)C(=O)N[C@@H](Cc1ccccc1)C(=O)N[C@H](C(=O)N[C@@H](CS)C(=O)N[C@@H](Cc1c[nH]c2ccccc12)C(=O)N[C@@H](CC(C)C)C(=O)N[C@@H](CCSC)C(=O)N[C@@H](CC(N)=O)C(=O)N[C@H](C(N)=O)[C@@H](C)O)C(C)C
As to B5, in the test with GLP-1 receptor [3], the EC50 is 0.018 nM.

For HSQGTFTSDK([Trp-Palmitoyl])SKYLDERRAKDFVC(PEG 40 kDa)WLMNT-NH2 [E16 K20-glucagon-NH2 with K10-W-C16 and C24-40K PEG (SEQ ID NO: 546)], the 50% effective concentration (EC50) stood at 0.23 nM with GLP-1 receptor [6], 0.54 nM with glucagon receptor [7], 0.23 nM with GLP-1 receptor [8] and 0.52 nM in the test with glucagon receptor [9].

For the molecule H[Aib]QGTFTSDK(Stearoyl)SKYLDEQAAKEFIC(PEG 40 kDa″)WLMNT-NH2 [C18 acylated Glucagon analog peptide (SEQ ID NO: 537)], the results for the EC50 with glucagon receptor [7] and with GLP-1 receptor [12] were 8.55 nM and 0.0118 nM, respectively.

Turning to HSQGTFTSDK(Stearoyl)SKYLDERRAKDFVQWLMNT-NH2 [E16 K20-glucagon-NH2 with K10-C18], the 50% effective concentration (EC50) with GLP-1 receptor [10] worked out at 0.032 nM; with GLP-1 receptor [5], 0.03 nM.

The values above are taken from patent US20120172295A1 (INDIANA UNIVERSITY RESEARCH AND TECHNOLOGY, published 2012).
